Tests used:
[1] = biological target: nuclear dUTP nucleotidohydrolase (nuclear isoform of dUTPase), endogenous (human (endogenous in U-2 OS, Saos2, A549, 18Co, HeLa)); assay: cross-linking
[2] = biological target: nuclear dUTP nucleotidohydrolase (nuclear isoform of dUTPase), endogenous (human (endogenous in U-2 OS, Saos2, A549, 18Co, HeLa)); assay: non-reducing SDS-PAGE with western blot
[3] = biological target: recombinant Wt nuclear dUTPase with N-terminal hexahistidine tag, from E. coli (human); conditions: scale: pmol of dUTP per minute per ng of protein

| Substance | stoichiometry N [1] | stoichiometry N [2] | dUTPase enzymatic assay (37°C, 5 min, no reducing agent) [3] |
| --- | --- | --- | --- |
| nuclear dUTP nucleotidohydrolase (nuclear isoform of dUTPase), endogenous (enzyme) | 2 | 2 | – |
| recombinant Wt nuclear dUTPase with N-terminal hexahistidine tag, from E. coli (enzyme) | – | – | 7.27 |

From publication PMC6199149
